Data reported in US20180064808A1 (Hoffmann-La Roche, published 2018).

Tests used:
[1] = target: T1, human Fibroblast Activation Protein (FAP) (human, UniProt Q12884 27-760); assay: SPR (Biacore), simultaneous binding
T1 construct: also called recombinant human FAP; Seprase

murine FAP = target: T2, murine FAP (murine, UniProt P97321 27-761); assay: SPR (Biacore), simultaneous binding
T2 construct: also called mouse FAP

[2] = target: T1, human Fibroblast Activation Protein …; assay: Affinity human [nM], IgG format; method not stated

T1 sequence (Q12884 27-760 limits assumed): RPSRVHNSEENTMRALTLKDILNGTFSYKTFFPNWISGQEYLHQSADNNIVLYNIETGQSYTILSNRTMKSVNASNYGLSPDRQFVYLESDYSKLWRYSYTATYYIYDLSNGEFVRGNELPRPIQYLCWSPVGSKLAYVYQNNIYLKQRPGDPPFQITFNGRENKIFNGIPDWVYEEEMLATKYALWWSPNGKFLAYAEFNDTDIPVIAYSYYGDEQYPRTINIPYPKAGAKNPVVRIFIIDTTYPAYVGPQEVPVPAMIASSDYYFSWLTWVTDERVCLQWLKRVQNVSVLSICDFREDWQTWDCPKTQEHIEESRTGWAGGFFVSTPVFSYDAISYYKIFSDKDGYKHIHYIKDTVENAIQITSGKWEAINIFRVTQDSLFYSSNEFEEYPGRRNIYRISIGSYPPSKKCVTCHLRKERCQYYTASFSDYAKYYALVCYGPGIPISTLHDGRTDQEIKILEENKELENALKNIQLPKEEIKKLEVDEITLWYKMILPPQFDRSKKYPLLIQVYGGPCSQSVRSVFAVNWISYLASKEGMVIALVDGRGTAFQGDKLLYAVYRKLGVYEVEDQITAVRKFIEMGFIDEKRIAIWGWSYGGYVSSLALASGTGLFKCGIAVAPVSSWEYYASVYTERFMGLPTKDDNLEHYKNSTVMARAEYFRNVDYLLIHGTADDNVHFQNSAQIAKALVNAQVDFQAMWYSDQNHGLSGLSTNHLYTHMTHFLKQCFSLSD
T2 sequence (P97321 27-761 limits assumed): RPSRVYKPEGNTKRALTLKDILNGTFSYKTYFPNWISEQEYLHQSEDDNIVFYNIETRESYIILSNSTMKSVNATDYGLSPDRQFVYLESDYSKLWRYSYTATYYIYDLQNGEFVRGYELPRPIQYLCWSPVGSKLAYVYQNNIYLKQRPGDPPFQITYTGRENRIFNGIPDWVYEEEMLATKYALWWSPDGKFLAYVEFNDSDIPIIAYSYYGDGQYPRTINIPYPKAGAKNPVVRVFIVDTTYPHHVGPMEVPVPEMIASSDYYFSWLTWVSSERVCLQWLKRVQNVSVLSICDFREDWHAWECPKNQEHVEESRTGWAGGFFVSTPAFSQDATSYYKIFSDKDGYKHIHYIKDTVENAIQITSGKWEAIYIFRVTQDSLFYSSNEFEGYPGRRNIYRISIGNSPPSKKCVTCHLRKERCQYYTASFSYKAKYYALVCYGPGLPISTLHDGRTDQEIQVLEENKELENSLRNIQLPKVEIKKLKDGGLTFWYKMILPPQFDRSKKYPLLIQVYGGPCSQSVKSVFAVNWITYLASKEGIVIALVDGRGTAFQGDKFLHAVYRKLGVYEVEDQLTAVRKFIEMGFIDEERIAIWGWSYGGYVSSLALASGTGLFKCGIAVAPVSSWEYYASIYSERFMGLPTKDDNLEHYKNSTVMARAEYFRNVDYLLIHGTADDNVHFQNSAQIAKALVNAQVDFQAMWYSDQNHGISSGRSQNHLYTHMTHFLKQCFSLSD

binding result [1] | binding result (murine FAP) | Kd [2] | Binder
binds | binds |  | DR5(5E11)-28H1 VHCL 2+2 (bispecific antibody, human IgG1, kappa, 28H1 CrossFab domain (VHCL) fused to the C-terminus of the anti-DR5 (5E11) heavy chain by a (G4S)4 connector; also called DR5-FAP bispecific antibody; bispecific, tetravalent DR5-FAP CrossMab molecule) heavy: not shown light: EIVLTQSPGTLSLSPGERATLSCRASQSVSSSYLAWYQQKPGQAPRLLIYGASSRATGIPDRFSGSGSGTDFTLTISRLEPEDFAVYYCQQGTTHPITFGQGTKVEIKRTVAAPSVFIFPPSDEQLKSGTASVVCLLNNFYPREAKVQWKVDNALQSGNSQESVTEQDSKDSTYSLSSTLTLSKADYEKHKVYACEVTHQGLSSPVTKSFNRGEC EIVLTQSPGTLSLSPGERATLSCRASQSVSRSYLAWYQQKPGQAPRLLIIGASTRATGIPDRFSGSGSGTDFTLTISRLEPEDFAVYYCQQGQVIPPTFGQGTKVEIKSSASTKGPSVFPLAPSSKSTSGGTAALGCLVKDYFPEPVTVSWNSGALTSGVHTFPAVLQSSGLYSLSSVVTVPSSSLGTQTYICNVNHKPSNTKVDKKVEPKSCD
binds | binds |  | DR5(5E11)-28H1 VHCL 2+2 P329GLALA (bispecific antibody, human IgG1, kappa, L234A L235A, As DR5(5E11)-28H1 VHCL 2+2, with removal of the C-terminal lysine and the P329G/LALA mutation in Fc; also called DR5-FAP bispecific antibody; bispecific, tetravalent DR5-FAP CrossMab molecule) heavy: not shown light: EIVLTQSPGTLSLSPGERATLSCRASQSVSSSYLAWYQQKPGQAPRLLIYGASSRATGIPDRFSGSGSGTDFTLTISRLEPEDFAVYYCQQGTTHPITFGQGTKVEIKRTVAAPSVFIFPPSDEQLKSGTASVVCLLNNFYPREAKVQWKVDNALQSGNSQESVTEQDSKDSTYSLSSTLTLSKADYEKHKVYACEVTHQGLSSPVTKSFNRGEC EIVLTQSPGTLSLSPGERATLSCRASQSVSRSYLAWYQQKPGQAPRLLIIGASTRATGIPDRFSGSGSGTDFTLTISRLEPEDFAVYYCQQGQVIPPTFGQGTKVEIKSSASTKGPSVFPLAPSSKSTSGGTAALGCLVKDYFPEPVTVSWNSGALTSGVHTFPAVLQSSGLYSLSSVVTVPSSSLGTQTYICNVNHKPSNTKVDKKVEPKSCD
 |  | 2.6 nM | FAP binder 28H1 (IgG) (antibody, V domains shown, also called FAP(28H1)) VH: EVQLLESGGGLVQPGGSLRLSCAASGFTFSSHAMSWVRQAPGKGLEWVSAIWASGEQYYADSVKGRFTISRDNSKNTLYLQMNSLRAEDTAVYYCAKGWLGNFDYWGQGTLVTVSS VL: EIVLTQSPGTLSLSPGERATLSCRASQSVSRSYLAWYQQKPGQAPRLLIIGASTRATGIPDRFSGSGSGTDFTLTISRLEPEDFAVYYCQQGQVIPPTFGQGTKVEIK
